From article PMC7702303, “Biochemical and transcript level differences between the three human phosphofructokinases show optimisation of each isoform for specific metabolic niches” (Biochemical Journal, 2020)
Several values for one entry are separate records, joined by “and”; a condition that tells them apart may be missing. Equal values may be shown once.

How the values were obtained:
[1] = substrate: O=C(CO)[C@@H](O)[C@H](O)[C@H](O)COP(=O)(O)O; assay: ALDO-TIM-G3PDH enzyme-linked kinetic assay, PFK-P; assay type: biochemical, human; details: other: PFK-P; F6P titration, ATP 0.5 mM; n = 6; mean (SD); pH 7.4; 25.0 °C
Protocol: (§1) Recombinant human PFKs were expressed in PFK-deficient Saccharomyces cerevisiae and purified using the methods described previously, adapting earlier materials and protocols. Production of PFK intended for use in ATP titration experiments used 1 mM F6P as a tetramer stabilising agent in protein purification and storage buffers. Production of PFK intended for use in F6P titration experiments used 1 mM ATP as a tetramer stabilising agent in protein purification and storage buffers. Experimental details on the purification and characterisation procedures including figures showing SDS–PAGE gels of the highly pure PFKs used in the kinetic experiments described in this work have been recently published.
(§2) Assay buffer consisted of 50 mM TEA, 100 mM KCl, 10 mM MgCl2, 1 mM Tris(2-carboxyethyl)phosphine hydrochloride (TCEP), 10% glycerol, pH 7.4. Assay mix consisted of 5 units/ml glycerol-3-phosphate dehydrogenase (G3PDH, Sigma–Aldrich G6880), 2.5 units/ml aldolase (Sigma–Aldrich A2714), 25 units/ml triosephosphate isomerase (TIM, Sigma–Aldrich T6258), and 1.25 mM NADH. […] A SpectraMax M5 Multi-Mode Microplate Reader was used to measure A340nm at 13 s intervals for 10 min. […]
(§3) Time-dependent absorbance change was converted into rate of NADH oxidation (µM s^−1) or specific activity (µmol min^−1 mg protein^−1) using the Beer-Lambert law (molar extinction coefficient of NADH 6.22 mM^−1 cm^−1). […]

[2] = target: the molecule itself; assay: SEC; size-exclusion chromatography of purified recombinant PFK isoforms, buffer and protein concentration not told in the main text (Supplementary Figure S2); tetramer to dimers
[3] = substrate: O=C(CO)[C@@H](O)[C@H](O)[C@H](O)COP(=O)(O)O; assay: ALDO-TIM-G3PDH enzyme-linked kinetic assay, PFK-M; assay type: biochemical, human; details: other: PFK-M; F6P titration, ATP 0.5 mM; n = 6; mean (SD); pH 7.4; 25.0 °C
Protocol: as §1, §2, §3

[4] = substrate: O=C(CO)[C@@H](O)[C@H](O)[C@H](O)COP(=O)(O)O; assay: ALDO-TIM-G3PDH enzyme-linked kinetic assay, PFK-L; assay type: biochemical, human; details: other: PFK-L; F6P titration, ATP 0.5 mM; n = 6; mean (SD); pH 7.4; 25.0 °C
Protocol: as §1, §2, §3

B1: human 6-phosphofructokinase-1-kinase, platelet isoform (PFK-P) (enzyme, UniProt Q01813 1-784, looked up)
chain: MDADDSRAPKGSLRKFLEHLSGAGKAIGVLTSGGDAQGMNAAVRAVVRMGIYVGAKVYFIYEGYQGMVDGGSNIAEADWESVSSILQVGGTIIGSARCQAFRTREGRLKAACNLLQRGITNLCVIGGDGSLTGANLFRKEWSGLLEELARNGQIDKEAVQKYAYLNVVGMVGSIDNDFCGTDMTIGTDSALHRIIEVVDAIMTTAQSHQRTFVLEVMGRHCGYLALVSALACGADWVFLPESPPEEGWEEQMCVKLSENRARKKRLNIIIVAEGAIDTQNKPITSEKIKELVVTQLGYDTRVTILGHVQRGGTPSAFDRILASRMGVEAVIALLEATPDTPACVVSLNGNHAVRLPLMECVQMTQDVQKAMDERRFQDAVRLRGRSFAGNLNTYKRLAIKLPDDQIPKTNCNVAVINVGAPAAGMNAAVRSAVRVGIADGHRMLAIYDGFDGFAKGQIKEIGWTDVGGWTGQGGSILGTKRVLPGKYLEEIATQMRTHSINALLIIGGFEAYLGLLELSAAREKHEEFCVPMVMVPATVSNNVPGSDFSIGADTALNTITDTCDRIKQSASGTKRRVFIIETMGGYCGYLANMGGLAAGADAAYIFEEPFDIRDLQSNVEHLTEKMKTTIQRGLVLRNESCSENYTTDFIYQLYSEEGKGVFDCRKNVLGHMQQGGAPSPFDRNFGTKISARAMEWITAKLKEARGRGKKFTTDDSICVLGISKRNVIFQPVAELKKQTDFEHRIPKEQWWLKLRPLMKILAKYKASYDVSDSGQLEHVQPWSV
notes: human phosphofructokinase, platelet isoform (PFK-P), recombinant; Active form is a tetramer in equilibrium with dimers
kcat [1]: 1.83 s⁻¹ | stoichiometry N [2]: 4 and 2

B2: human 6-phosphofructokinase-1-kinase, muscle isoform (PFK-M) (enzyme, UniProt P08237 1-780, looked up)
chain: MTHEEHHAAKTLGIGKAIAVLTSGGDAQGMNAAVRAVVRVGIFTGARVFFVHEGYQGLVDGGDHIKEATWESVSMMLQLGGTVIGSARCKDFREREGRLRAAYNLVKRGITNLCVIGGDGSLTGADTFRSEWSDLLSDLQKAGKITDEEATKSSYLNIVGLVGSIDNDFCGTDMTIGTDSALHRIMEIVDAITTTAQSHQRTFVLEVMGRHCGYLALVTSLSCGADWVFIPECPPDDDWEEHLCRRLSETRTRGSRLNIIIVAEGAIDKNGKPITSEDIKNLVVKRLGYDTRVTVLGHVQRGGTPSAFDRILGSRMGVEAVMALLEGTPDTPACVVSLSGNQAVRLPLMECVQVTKDVTKAMDEKKFDEALKLRGRSFMNNWEVYKLLAHVRPPVSKSGSHTVAVMNVGAPAAGMNAAVRSTVRIGLIQGNRVLVVHDGFEGLAKGQIEEAGWSYVGGWTGQGGSKLGTKRTLPKKSFEQISANITKFNIQGLVIIGGFEAYTGGLELMEGRKQFDELCIPFVVIPATVSNNVPGSDFSVGADTALNTICTTCDRIKQSAAGTKRRVFIIETMGGYCGYLATMAGLAAGADAAYIFEEPFTIRDLQANVEHLVQKMKTTVKRGLVLRNEKCNENYTTDFIFNLYSEEGKGIFDSRKNVLGHMQQGGSPTPFDRNFATKMGAKAMNWMSGKIKESYRNGRIFANTPDSGCVLGMRKRALVFQPVAELKDQTDFEHRIPKEQWWLKLRPILKILAKYEIDLDTSDHAHLEHITRKRSGEAAV
notes: human phosphofructokinase, muscle isoform (PFK-M), recombinant; Active form is a tetramer in equilibrium with dimers
kcat [3]: 8.11 s⁻¹ | stoichiometry N [2]: 4

B3: human 6-phosphofructokinase-1-kinase, liver isoform (PFK-L) (enzyme, UniProt P17858 1-780, looked up)
chain: MAAVDLEKLRASGAGKAIGVLTSGGDAQGMNAAVRAVTRMGIYVGAKVFLIYEGYEGLVEGGENIKQANWLSVSNIIQLGGTIIGSARCKAFTTREGRRAAAYNLVQHGITNLCVIGGDGSLTGANIFRSEWGSLLEELVAEGKISETTARTYSHLNIAGLVGSIDNDFCGTDMTIGTDSALHRIMEVIDAITTTAQSHQRTFVLEVMGRHCGYLALVSALASGADWLFIPEAPPEDGWENFMCERLGETRSRGSRLNIIIIAEGAIDRNGKPISSSYVKDLVVQRLGFDTRVTVLGHVQRGGTPSAFDRILSSKMGMEAVMALLEATPDTPACVVTLSGNQSVRLPLMECVQMTKEVQKAMDDKRFDEATQLRGGSFENNWNIYKLLAHQKPPKEKSNFSLAILNVGAPAAGMNAAVRSAVRTGISHGHTVYVVHDGFEGLAKGQVQEVGWHDVAGWLGRGGSMLGTKRTLPKGQLESIVENIRIYGIHALLVVGGFEAYEGVLQLVEARGRYEELCIVMCVIPATISNNVPGTDFSLGSDTAVNAAMESCDRIKQSASGTKRRVFIVETMGGYCGYLATVTGIAVGADAAYVFEDPFNIHDLKVNVEHMTEKMKTDIQRGLVLRNEKCHDYYTTEFLYNLYSSEGKGVFDCRTNVLGHLQQGGAPTPFDRNYGTKLGVKAMLWLSEKLREVYRKGRVFANAPDSACVIGLKKKAVAFSPVTELKKDTDFEHRMPREQWWLSLRLMLKMLAQYRISMAAYVSGELEHVTRRTLSMDKGF
notes: human phosphofructokinase, liver isoform (PFK-L), recombinant; Active form is a tetramer in equilibrium with dimers
kcat [4]: 5.38 s⁻¹ | binding result [2]: binds
